In US20240358849A1 (SUZHOU FUSE BIOSCIENCES, published 2024):

T1: IL-2hex, mutant human IL-2 (deltaA1/T3A/F42A/Y45A/L72G/C125S) (human, UniProt P60568 22-153)
T1 chain: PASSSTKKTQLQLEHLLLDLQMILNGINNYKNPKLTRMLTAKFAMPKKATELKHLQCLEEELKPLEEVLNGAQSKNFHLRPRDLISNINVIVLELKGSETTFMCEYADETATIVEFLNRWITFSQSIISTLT


Key:
[1] = target: T2, human Fibroblast Activation Protein (FAP), soluble antigen (human, UniProt Q12884 26-760, biotinylated when immobilized on streptavidin sensors); test: BLI per 6.1.3, human FAP;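 as to Kd: biolayer interferometry with immobilized antigen on sensors, antibody association up to 240 s then dissociation up to 420 s, reference-subtracted, global 1:1 fit with unlinked Rmax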;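 as to kon: biolayer interferometry with immobilized antigen on sensors, antibody association up to 240 s then dissociation up to 420 s, reference-subtracted, global 1:1 fit with unlinked Rmax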
T2 construct: also called hFAP; biotinylated FAP
T2 sequence (Q12884 26-760 limits assumed): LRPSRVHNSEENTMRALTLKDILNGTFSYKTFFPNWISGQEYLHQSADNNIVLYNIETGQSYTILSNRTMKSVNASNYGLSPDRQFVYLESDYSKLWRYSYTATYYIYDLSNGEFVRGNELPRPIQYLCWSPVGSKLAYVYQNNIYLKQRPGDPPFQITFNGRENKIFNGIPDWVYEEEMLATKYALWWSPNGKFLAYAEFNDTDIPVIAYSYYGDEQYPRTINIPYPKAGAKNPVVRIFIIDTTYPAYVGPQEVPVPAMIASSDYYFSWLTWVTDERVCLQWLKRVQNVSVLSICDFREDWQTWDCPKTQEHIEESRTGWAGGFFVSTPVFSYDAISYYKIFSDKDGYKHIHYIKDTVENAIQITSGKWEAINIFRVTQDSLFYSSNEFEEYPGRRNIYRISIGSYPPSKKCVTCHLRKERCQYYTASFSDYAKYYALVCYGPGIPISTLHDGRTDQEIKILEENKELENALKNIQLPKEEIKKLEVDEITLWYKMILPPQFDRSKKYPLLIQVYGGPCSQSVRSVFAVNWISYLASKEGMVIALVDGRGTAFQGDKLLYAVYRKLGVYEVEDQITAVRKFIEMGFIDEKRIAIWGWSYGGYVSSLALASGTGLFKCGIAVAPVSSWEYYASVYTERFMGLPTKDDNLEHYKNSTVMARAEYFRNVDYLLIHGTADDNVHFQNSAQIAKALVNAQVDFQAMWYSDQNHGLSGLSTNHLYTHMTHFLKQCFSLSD
Protocol: (§1) Binding constants (kₒₙ, koff and KD) were determined after referencing by subtracting responses from sensors without immobilized antigen. Data were fit globally with Gator software using a 1:1 binding interaction while fitting the responses to an unlinked Rₘₐₓ. All protein samples were diluted in PBST-BSA. Typical protocol for KD determination:

[2] = target: T2, human Fibroblast Activation Protein …; test: BLI per 6.1.3, human FAP; remark: listed apart in the source
Protocol: as §1

[3] = target: T2, human Fibroblast Activation Protein …; test: BLI, FAP on streptavidin sensor, monovalent Fab-Fc fusion of D002
Protocol: Binding constants (kₒₙ, koff and KD) were determined after referencing by subtracting responses from sensors without immobilized antigen. Data were fit globally with Gator software using a 1:1 binding interaction while fitting the responses to an unlinked Rₘₐₓ. All protein samples were diluted in PBST-BSA.

[4] = target: T3, human interleukin-2 (IL-2), wild type (human, UniProt P60568 21-153, biotinylated when immobilized); test: BLI, equilibrium binding analysis, biotinylated IL-2 on streptavidin sensor, monovalent Fab-Fc fusion of D002
T3 construct: also called biotinylated IL-2; IL2 WT
T3 sequence (P60568 21-153): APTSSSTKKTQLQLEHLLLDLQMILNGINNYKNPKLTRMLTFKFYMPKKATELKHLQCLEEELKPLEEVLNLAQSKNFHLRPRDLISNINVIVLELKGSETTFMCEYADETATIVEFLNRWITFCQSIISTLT

[5] = target: T1, IL-2hex, mutant human IL-2 …; test: not stated in the sentence (BLI value of FIG. 4B, there told for IL-2)

| improvement of the affinity over parent 872-5 (fold) [1] | Kd [2] | kon [2] | Kd [3] | Kd [4] | Kd [5] | Binder |
| --- | --- | --- | --- | --- | --- | --- |
| > 80 fold | < 0.0001 µM | 625000 M⁻¹ s⁻¹ | – | – | – | anti-FAP antibody 872-5V1 (antibody, V domains shown, KD by BLI per 6.1.3 (monovalent Fab-Fc)) VH: EVQLVESGGGLVQPGGSLRLSCAASGFTFRGYIMSWVRQAPGKGLEWVSWIGPEGSRTGYADSVKGRFTISRDNSKNTLYLQMNSLRAEDTAVYYCARLLYGTWFDYWGQGTLVTVSS VL: DIQMTQSPSSLSASVGDRVTITCRASQSISSYLNWYQQKPGKAPKLLIYAASSLQSGVPSRFSGSGSGTDFTLTISSLQPEDFATYYCQQGTLLLPTFGQGTKVEIKR |
| – | – | – | ~0.05 µM | 3.4 µM | ~3.4 µM | anti-IL-2/anti-FAP two-in-one antibody D002 (bispecific antibody, V domains shown) VH: EVQLVESGGGLVQPGGSLRLSCAASGFTFSRYSMSWVRQAPGKGLEWVSDISSYSTTYYADSVKGRFTISRDNSKNTLYLQMNSLRAEDTAVYYCARSQYGRYYSPDYYFDYWGQGTLVTVSS VL: DIQMTQSPSSLSASVGDRVTITCRASQSIGNSLNWYQQKPGKAPKLLIYAASSLQSGVPSRFSGSGSGTDFTLTISSLQPEDFATYYCQQGRRSPFTFGQGTKVEIKR |
